# Assay results: article PMC2894018 (2010)
# B1: HIV-1 Vpr from NL43 (Vpr^wt) fused to the N- or C-terminal fragment of Venus [HIV-1 (NL43)] / itself (parent complex)
# chain: MEQAPEDQGPQREPYNEWTLELLEELKSEAVRHFPRIWLHNLGQHIYETYGDTWAGVEAIIRILQQLLFIHFRIGCRHSRIGVTRQRRARNGASRS
# Variants of: B1
# Experiment: BiFC (bimolecular fluorescence complementation), flow cytometry on cells; cells cotransfected with VC and VN fusions of the same Vpr mutant; vector control 0.1; parent: 35.7
row,Variant,response [% BiFC positive cells]
1,chain 1 H71R,1.65
2,chain 1 A30L,1.19
3,chain 1 L68E,1.03
